Test results published in article PMC12516131.

Tests used:
[1] = target: eGFP–POK2^2083–2440 (Arabidopsis thaliana); assay: native gel or EMSA; blue native PAGE, 4–12% Tris-Glycine gels, 100 ng of each protein per lane, anti-GFP western blotting and silver staining; oligomeric state in solution
[2] = target: GMPCPP- and paclitaxel-stabilised microtubules (porcine brain tubulin) (porcine (brain tubulin)); assay: single-molecule TIRF microscopy on microtubules; 2 nM eGFP–POK2^2083–2771 in PEM20-based Reaction Buffer on unlabelled stabilised microtubules (IRM); kymographs, landing rate and interaction times of diffusive particles
[3] = target: GMPCPP- and paclitaxel-stabilised microtubules (porcine brain tubulin) (porcine (brain tubulin)); assay: TIRF microscopy microtubule binding assay; 10% rhodamine-labelled GMPCPP/paclitaxel microtubules immobilised on glass by anti-β-tubulin antibody; eGFP–POK2 fragment at increasing concentrations in PEM20-based Reaction Buffer (20 mM K-PIPES pH 6.9, 1 mM MgCl2, 1 mM EGTA, casein, 1 mM ATP, 5 mM DTT); intensity per microtubule length; Hill–Langmuir fit

Substance | stoichiometry N [1] | interaction time (subpopulation 1) [2] [s] | interaction time (subpopulation 2) [2] [s] | interaction time (subpopulation 3) [2] [s] | landing rate at 2 nM [2] [µm^−1 min^−1] | Kd [3] [nM]
eGFP–POK2^2083–2440 (domain or fragment) | 2 |  |  |  |  | 
eGFP–POK2^2083–2771–8×His (domain or fragment) |  | 0.9 | 6 | 43 | 0.16 | 106
